Test results as given in patent US20050008616A1, “Recombinant human interferon-beta-1b polypeptides” (Schering Aktiengesellschaft, priority 2003, published 2005).
Several values for one entry are separate records, joined by “and”; a condition that tells them apart may be missing. Equal entries are not always repeated.

Key:
[1] = biological target: T1, fibroblast-derived native IFN-β (Homo sapiens, UniProt P01574); settings: partially purified native interferon; cited from earlier work
T1 construct: host or cells: human fibroblasts (natural producer)

Soybean Agglutinun = biological target: T2, Soybean Agglutinun (soybean, UniProt P05046 33-285, biotinylated (sites not given)); assay: dot blot, probed with biotinylated lectin
T2 construct: Bought biotinylated lectin; also called SBA
Procedure: Finally, IFN-β-1b lot A was tested for binding to biotinylated lectins from Vector Laboratories.

[2] = system: human amnionic cell line WISH infected with VSV; format: cell-based, vesicular stomatitis virus; settings: WISH cells infected with VSV, viral plaque reduction
[3] = IFN-β specific activity, assay not stated
EAE = settings: rodent EAE; cited from earlier work
MxA gene = MxA gene induction assay (ICLA); format: cell-based, human
Description: Based on the specific induction of the MxA gene by type I IFNs in cultured human cells (Von Wussow, P. et al. (1990) Eur. J. Immunol. 20:2015-2019; and Simon, A. et al. (1991) J. Interferon Res. 11:215-219), an immunochemiluminometric (“ICLA”) assay was developed by Files, J. G. et al. (1998) J. Interferon Res. 18:1019-1024. The ICLA assay, which is based on the procedure of Oh, S. K. et al. (1994) J. Immunol. Meth. 176:79-91, detects MXa protein in cell lysates using two non-competing anti-MxA monoclonal antibodies, one of which is conjugated with acridinium ester, which is detected in a luminometer. The MxA gene induction ICLA assay procedure used herein is described in detail in Files, J. G. et al. (1998) supra.

T1 sequence (P01574 22-187): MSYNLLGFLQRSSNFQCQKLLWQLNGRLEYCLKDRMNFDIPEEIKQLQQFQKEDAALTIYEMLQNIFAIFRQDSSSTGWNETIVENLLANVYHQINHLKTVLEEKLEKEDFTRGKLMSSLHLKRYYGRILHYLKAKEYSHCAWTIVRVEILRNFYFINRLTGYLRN
T2 sequence (P05046 33-285 limits assumed): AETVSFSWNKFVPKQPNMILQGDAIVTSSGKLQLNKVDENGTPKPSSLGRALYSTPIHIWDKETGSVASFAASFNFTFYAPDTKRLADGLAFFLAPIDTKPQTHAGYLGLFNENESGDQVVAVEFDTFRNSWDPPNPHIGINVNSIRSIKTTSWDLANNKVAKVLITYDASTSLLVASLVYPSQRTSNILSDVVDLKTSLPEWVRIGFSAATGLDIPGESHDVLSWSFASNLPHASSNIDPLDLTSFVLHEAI

CC(=O)N[C@H]1[C@H]([C@H](O)[C@H](O)CO)OC(O)(C(=O)O)C[C@@H]1O (stereo partly shown) [sialic acid, N-acetylneuraminic acid]
effect on antiviral activity of native IFN-β [1]: not

(N-acetylneuraminosyl)galactosylglucosylceramide [GM3]
effect on antiviral activity of native IFN-β [1]: abolished

B1: peak IFN-β-1b (fraction 5) from the Con A Sepharose column (ligand)
chain: MSYNLLGFLQRSSNFQSQKLLWQLNGRLEYCLKDRMNFDIPEEIKQLQQFQKEDAALTIYEMLQNIFAIFRQDSSSTGWNETIVENLLANVYHQINHLKTVLEEKLEKEDFTRGKLMSSLHLKRYYGRILHYLKAKEYSHCAWTIVRVEILRNFYFINRLTGYLRN
notes: Same polypeptide as IFN-β-1b lot A, after Con A Sepharose chromatography removed most of the non-covalently attached carbohydrate; The note on Met1 for m1 applies here too; also called IFN-β-1b lot A further purified by Con A Sepharose column chromatography
binding result (Soybean Agglutinun): no binding

B2: peak IFN-β-1b (fraction 5): IFN-β-1b lot A further purified by Con A Sepharose column chromatography, peak fraction 5, carbohydrates largely removed (protein, UniProt P01574 22-187, looked up, variant C17S)
Interferon beta: MSYNLLGFLQRSSNFQSQKLLWQLNGRLEYCLKDRMNFDIPEEIKQLQQFQKEDAALTIYEMLQNIFAIFRQDSSSTGWNETIVENLLANVYHQINHLKTVLEEKLEKEDFTRGKLMSSLHLKRYYGRILHYLKAKEYSHCAWTIVRVEILRNFYFINRLTGYLRN
modifications: interferon beta-1b; deglycosylated fraction
notes: IFN-β-1b lot A further purified by Con A Sepharose column chromatography, peak fraction 5, carbohydrates largely removed
specific activity [2]: 3.6×10^7 IU/mg

B3: IFN-β-1b: recombinant human IFN-β expressed in E. coli with Cys17 to Ser17 substitution, 165 amino acids, not glycosylated (SEQ ID NO: 2) (protein, listed as Homo sapiens)
chain: MSYNLLGFLQRSSNFQSQKLLWQLNGRLEYCLKDRMNFDIPEEIKQLQQFQKEDAALTIYEMLQNIFAIFRQDSSSTGWNETIVENLLANVYHQINHLKTVLEEKLEKEDFTRGKLMSSLHLKRYYGRILHYLKAKEYSHCAWTIVRVEILRNFYFINRLTGYLRN
specific activity [3]: 2 to 3×10^7 IU/mg and ~3×10^7 IU/mg | in vivo efficacy in EAE models (EAE): shows in vivo efficacy

B4: IFN-β-1aSER17: IFN-β-1a in which Cys17 is replaced by Ser17, expressed in CHO cells, purified by affinity chromatography (protein, UniProt P01574 22-187, looked up, variant C17S)
Interferon beta: MSYNLLGFLQRSSNFQSQKLLWQLNGRLEYCLKDRMNFDIPEEIKQLQQFQKEDAALTIYEMLQNIFAIFRQDSSSTGWNETIVENLLANVYHQINHLKTVLEEKLEKEDFTRGKLMSSLHLKRYYGRILHYLKAKEYSHCAWTIVRVEILRNFYFINRLTGYLRN
decrease in specific activity (MxA gene; PNGase F-mediated deglycosylation, non-reducing or reducing conditions, FIG. 2B): 30-35% | effect on specific activity of overnight incubation alone (MxA gene; overnight (18 hours) incubation, FIG. 2B): not adversely affected | specific activity (MxA gene; product label specific activity of reconstituted IFN-β-1b/Betaseron® as IFN standard, FIG. 2A): 1.3 to 2.4×10^8 IU/mg | reduction in specific activity (MxA gene; reduction in the presence of SDS followed by spontaneous reoxidation, FIG. 2B): ~20%
